Experimental data from patent US20250027068.
Changes are numbered by the printed parent chain.

B1: PRT-695 (protein)
chain: MTITTVWTKGVTPPTPEDFRYNNEDVLHAPYVPNQGWYDITKTFDGKDNLLCGAATAGNMLHWWFDQNKEEIERYLKKYPEKQKIIFNNQELFDVRAAINTKDSQTNSKLFNYFRDKAFPNLSARQLGVMPDLVLDMFINGYYLNLGKTQSTDVNRPYQDRDKRGGIFDAVFNRGDQTTLLTARHDLKNKGLNEISDLIKQELSSGKALALSHTYANVRINHVINLWGADFDAEGNLIAIYVTDSDANASIGMKKYYVGVNANGKVAISAKKIEGDNIGAQVLGLFTLSTGQDIWQKLSLEHHHHHH
B2: PRT-638 (protein)
chain: MQITSVWTKGVTPLTPEQFRYNNEDVIHAPYLAHQGWYDITKLNDTGDGLLCGAATAGNMLHWWFDQNKTEIEAYLSKHPEKQKIIFNNQELFDLKAAIDTKDSQTNSQLFNYFRDKAFPNLSARQKGVMPDLVLDMFINGYYLNVFKTQSTDVNRPYQDKDKRGGIFDAVFTRGDQTTLLTARHDLKNKGLNDISTIIKQELTEGRALALSHTYANVSISHVINLWGADFNAEGNLEAIYVTDSNAGNGIGMKKYFVGINAHGHVAISAKKIEGENIGAQVLGLFTLSSGKDIWQKLSLEHHHHHH
B3: PRT-570 (protein)
chain: MANQEIRYSEATPSHITSVWTKGVTPPEQFIQNEDVLHAPYIANQGWYDITKTFNGKDDLLCGAATAGNMLHWWFDQNKEQIEAYLKKHPEKQKINFNGEQMFDVKEAIDTKDSQTDSALFNYFKDKAFPYLSTKHLGVFPDHVIDMFINGYRLSLTNHGPTPVKEQTKDPRGGIFDAVFTRGDQSKLLTSRHDFKEKTLKEISQLIKQELTEGKALGLSHTYANVRINHVINLWGADFNAEGNLEAIYVTDSDSNASIGMKKYYVGVNSAGKVAISAKEIEGDNIGAQVLGLFTLSTGQDIWQQTNLEHHHHHH
B4: PRT-649 (protein)
chain: MQITSVWTKGVTPLTPEQFRYNNEDVIHAPYLAHQGWYDITKAFDGKDNLLCGAATAGNMLHWWFDQNKTEIEAYLSKHPEKQKIIFNNQYLFDLKAAIDTKDSQTNSQLFNYFRDKAFGNLSARQLGVMPDLVLDMFINGYKLKVNKTQSTDVNRPYQKPDNFGGIFDAVFTRGDQTTLLTARHDLKNKGLNDISTIIKQELTEGRALALSHTYANVSISHVINLWGADFNAEGNLEAIYVTDSDANASIGMKKYFVGINAHGHVAISAKKIEGENIGAQVLGLFTLSSGKDIWQKLSLEHHHHHH
B5: PRT-631 (protein)
chain: MQITSVWTKGVTPLTPEQFRYNNEDVIHAPYLAHQGWYDITKAFDGKDNLLCGAATAGNMLHWWFDQNKEEIDNYLKKYPDKQKIIFNNQELFDLKAAIDTKDSQTNSQLFNYFRDKAFPNLSARQLGVMPDLVLDMFINGYYLNVFKTQSTDVNRPYQDKDKRGGIFDAVFTRGDQTTLLTARHDLKNKGLNDISTIIKQELTEGRALALSHTYANVSISHVINLWGADFNAEGNLEAIYVTDSDANASIGMKKYFVGINAHGHVAISAKKIEGENIGAQVLGLFTLSSGKEIWKKLSLEHHHHHH
B6: PRT-669 (protein)
chain: MQITSVWTKGVTPPTPEQFTNNNEDVFHAPYLANQGWYDITKTFNGKDNLLCGAATAGNMLHWWFDQNKEQIEAYLKKHPEKQKIIFNNQEMFDLKKAIDTKDSQTNSALFNYFRDKAFPNLSARQLGVMPDLVLDMFINGYYLNVGKTQSTDVNRPYQTKDKRGGIFDAVFTRGDQTKLLTARHDLKNKGLNEISDLIKQELTEGKALALSHTYANVRINHVINLWGADFNAEGNLIAIYVTDSDSNASIGMKKYFVGVNSAGKVAISAKKIEGDNIGAQVLGLFTLSSGQDIWQKLSLEHHHHHH
B7: PRT-676 (protein)
chain: MQITSVWTKGVTPPTMDQFTNYNYDVFHAPYKPGQGWYDITKTFDGKDNLLCGAATAGNMLHWWFDQNKEEIENYLKKHPEKQKIIFNNQKMFDLRKAINTKDSQTNSALFNYFKDKAFPNLSARQKGVMPDLVLDMFINGYYLNLGKTQSTDVNREYQTKDSRGGIFDDVFGRGDQTKLLTARHDLYNGGLNDISQLIKQELSSGKALGLSHTYANVRYSHVINLWGADFDEEGNLEAIYVTDSDDDASIGMKKYYVGKNASGKVAISAKKIEGENIGAQVLGLFTLSSGKEIWQKLSLEHHHHHH
B8: PRT-531 (protein)
chain: MANQEIRYSEDTPSHITSVWTKGVTPPTQFIQNEDVLHAPYIANQGWYDITKTFNGKDDLLCGAATAGNMLHWWFDQNKEQIEAYLKKYPEKQKINFNGEQMFDVKEAIDTKDSQTDSALFNYFRDKAFPNLSTKHLGVMPDHVIDMFINGYRLNLGNHGPTPVKNQTKDLRGGIFDAVFTRGDQSKLLTARHDFKEKTLKEISQLIKQELTEGKALALSHTYANVRINHVINLWGADFNAEGNLEAIYVTDSDSNASIGMKKYYVGVNAAGKVAISAKEIEGDNIGAQVLGLFTLSSGQDIWQQTNLEHHHHHH
B9: PRT-613 (protein)
chain: MQITTVWTKGVTPLTPEQFRYNNEDVIHAPYLAHQGWYDITKAFDGKDNLLCGAATAGNMLHWWFDQNKTEIEAYLSKHPEKQKIIFNNQELFDLKAAISTKDSQTNSQLFNYFRDKAFPNLSARQLGVMPDLVLDMFINGYYLNVFKTQSTDVNRPYQDKDKRGGIFDDVFTRGDQTTLLTARHDLKNGGLNDISTIIKQELTNGRALALSHTYANVSISHVINLWGADFNAEGNLEAIYVTDSDANARIGMKKYGVGINAHGHVAISAKKIEGENIGAQVLGLFTLSSGKDIWQKLSLEHHHHHH
B10: PRT-604 (protein)
chain: B9 chain with T5S, S100D, T173G, R174K, G190K, N205E, R250S, G257F
B11: PRT-626 (protein)
chain: B9 chain with T5S, S100D, Y158P, Q159D, D170H, T173N, G190K, N205E, R250S, G257F
B12: PRT-680 (protein)
chain: MQITSVWTKGVTPLTPEQFRYNNEDVIHAPYLPHQGWYDITKAFDGKDNLLCGAATAGNMLHWWFDQNKTEIEAYLSKHPEKQKIIFNNQELFDLRAAINTKDSQTNSALFNYFRDKAFPNLSARQLGVMPDLVLDMFINGYYLNVFKTQSTDVNRPYQDKDKRGGIFDAVFTRGDQTTLLTARHDLKNKGLNDISTIIKQELTEGKALALSHTYANVSISHVINLWGADFNAEGNLEAIYVTDSDANASIGMKKYYVGINAHGHVAISAKKIEGENIGAQVLGLFTLSSGKDIWQKLSLEHHHHHH
B13: PRT-616 (protein)
chain: B12 chain with S5T, H79Y, A109Q, K161R, T173N, T204S, E205S, K207R
B14: PRT-645 (protein)
chain: MQITSVWTKGVTPLTPEQFRYNNEDVIHAPYLAHQGWYDITKAFDGKDNLLCGAATAGNMLHWWFDQNKTEIEAYLSKHPEKQKIIFNNQELFDLKAAIDTKDSQTNSQLFNYFRDKAFPNLSARQLGVMPDLVLDMFINGYYLNVFKTQSTDVNRPYQDKDKRGGIFDAVFTRGDQTTLLTARHDLKNKGLNDISTIIKQELTEGRALALSHTYANVSISHVINLWGADFNAEGNLEAIYVTDSDANASIGMKKYYVGYNKSGRVAISAYKITDENIGAQVLGLFTLSSGKDIWQKLSLEHHHHHH

Biological target: pooled human IgG (human IgG1,2,3 and 4)

Row | Protein | Enzyme activity endpoint: Fab′2 [ng/µL] | Enzyme activity endpoint: Fc [ng/µL] | Enzyme activity endpoint: IgG [ng/µL] | Enzyme activity endpoint: scIgG [ng/µL]
1 | B1 | 781 | 433 | 66 | 0
2 | B2 | 550 | 10 | 823 | 17
3 | B3 | 551 | 126 | 0 | 0
4 | B4 | 657 | 32 | 886 | 24
5 | B5 | 749 | 419 | 0 | 0
6 | B6 | 808 | 457 | 0 | 0
7 | B7 | 107 | 136 | 0 | 118
8 | B8 | 756 | 212 | 0 | 0
9 | B9 | 686 | 433 | 15 | 251
10 | B10 | 51 | 276 | 396 | 964
11 | B11 | 569 | 388 | 0 | 225
12 | B12 | 752 | 451 | 0 | 277
13 | B13 | 943 | 495 | 0 | 0
14 | B14 | 683 | 455 | 0 | 236
